According to patent US20150176059:
Where two headings read alike, the source gives them in different places.

Assays:
[1] = tested on: Z05-D DNA polymerase (Thermus sp. Z05?); conditions: SYBR Green melting, 50 mM Tris pH 8.0, 100 mM KCl, 2.5 mM MgCl2
[2] = tested on: Z05 DNA polymerase (Thermus sp. Z05?); experiment: inhibition; conditions: KRAS PCR, 60 C, 10x excess, no UNG, 20 nM Z05, 3 mM MgCl2

Sequence: CGATCATCTCAGAACATTCTTAGCGTTTTGTTCTTGTGTATGATCG [U0 (NTQ21-46A)]
- binding ([1]; aptamer Tm 60.7 C with 20 nM Z05-D vs 59.0 C without): 1.7 °C
- activity ([2]; no-target Ct 32.0 vs 25.7 without aptamer): 32 Ct

Sequence: CGATCATCTCAGAACATTCTTAGCGTTTUGUUCUUGTGTATGATCG [U2]
- binding ([1]; dU replacing dT at positions shown as u (medium dU content), aptamer Tm 59.5 C with 20 nM Z05-D vs 57.9 C without): 1.6 °C
- activity ([2]; dU replacing dT at positions shown as u (medium dU content), no-target Ct 31.2 vs 25.7 without aptamer): 31.2 Ct

Sequence: CGAUCAUCTCAGAACATTCTTAGCGTTTUGUUCUUGTGTAUGAUCG [U3]
- binding ([1]; dU replacing dT at positions shown as u (high dU content), aptamer Tm 57.6 C with 20 nM Z05-D vs 55.6 C without): 2 °C
- activity ([2]; dU replacing dT at positions shown as u (high dU content), no-target Ct 30.8 vs 25.7 without aptamer): 30.8 Ct

Sequence: CGAUCAUCTCAGAACATTCTTAGCGTTTTGTTCTTGTGTAUGAUCG [U1]
- binding ([1]; dU replacing dT at positions shown as u (low dU content), aptamer Tm 58.4 C with 20 nM Z05-D vs 56.8 C without): 1.6 °C
- activity ([2]; dU replacing dT at positions shown as u (low dU content), no-target Ct 31.7 vs 25.7 without aptamer): 31.7 Ct
